± gives the standard error. For part of these data: Variants at the floor of the assay were thinned out.
B1: glmS ribozyme (parent)
chain: AUAAAAGCGCCAGAACUACAGAAAUGUAGUUGACGAGGAGGAGGUUUAUCGAAUUUUCGGCGGAUGCCUCCAAA

Key:
Settings in all cases: with glucosamine-6-phosphate
glucosamine-6-phosphate [1] = variants of: B1; experiment: kcat; higher = faster cleavage; RNA array
Outline: (§1)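 Weighted Michaelis–Menten fits across concentrations supplied kcat and KM, based on kobs from one- or two-exponential decay fits to normalised per-tile medians. The data came from barcoded ribozyme variants transcribed in situ by E. coli RNA polymerase on sequenced MiSeq chips and tracked at 37 °C by a hybridised Cy3 probe. Glucosamine-6-phosphate (40 μM to 10 mM) in HEPES/KCl/Mg(OAc)2 buffer was flowed in.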

glucosamine-6-phosphate [2] = variants of: B1; experiment: KM; higher = weaker cofactor use; RNA array
Outline: as §1

glucosamine-6-phosphate [3] = variants of: B1; experiment: self-cleavage kobs at 640 uM GlcN6P; higher = faster cleavage; RNA array
Outline: as §1

glucosamine-6-phosphate [4] = variants of: B1; experiment: self-cleavage kobs at 2500 uM GlcN6P; higher = faster cleavage; RNA array
Outline: as §1

glucosamine-6-phosphate [5] = variants of: B1; experiment: self-cleavage kobs at 10000 uM GlcN6P; higher = faster cleavage; RNA array
Outline: as §1

glucosamine-6-phosphate [6] = variants of: B1; experiment: self-cleavage kobs at 160 uM GlcN6P; higher = faster cleavage; RNA array
Outline: as §1

glucosamine-6-phosphate [7] = variants of: B1; experiment: self-cleavage kobs at 40 uM GlcN6P; higher = faster cleavage; RNA array
Outline: as §1

Variant | kcat (glucosamine-6-phosphate [1]) [s⁻¹] | KM (glucosamine-6-phosphate [2]) [mM] | self-cleavage kobs at 640 uM GlcN6P (glucosamine-6-phosphate [3]) [s⁻¹] | self-cleavage kobs at 2500 uM GlcN6P (glucosamine-6-phosphate [4]) [s⁻¹] | self-cleavage kobs at 10000 uM GlcN6P (glucosamine-6-phosphate [5]) [s⁻¹] | self-cleavage kobs at 160 uM GlcN6P (glucosamine-6-phosphate [6]) [s⁻¹] | self-cleavage kobs at 40 uM GlcN6P (glucosamine-6-phosphate [7]) [s⁻¹]
A39U A64U | 4.75e-05 ± 1.7e-06 | 0.537 ± 0.12 | 2.64e-05 ± 9.3e-06 | 4e-05 ± 7e-06 | 4.46e-05 ± 5.4e-06 | – | –
C58G | 0.000194 ± 8.4e-06 | 3.18 ± 0.3 | 3.47e-05 ± 1.2e-06 | 8.3e-05 ± 1.6e-06 | 0.000149 ± 2.3e-06 | 1.37e-05 ± 2.9e-06 | –
A12U U31G | 0.0183 ± 0.0087 | – | 0.00439 ± 0.00076 | 0.00841 ± 0.0023 | 0.0262 ± 0.0045 | 0.00142 ± 0.00026 | 0.000567 ± 5.6e-05
G35U G37C G60U | < 1e-05 | – | < 1e-05 | – | – | – | < 1e-05
C16U G37U G51C | < 1e-05 | – | < 1e-05 | – | – | < 1e-05 | < 1e-05
A42G A48G | 9.11e-05 ± 9e-06 | – | – | – | 3.86e-05 ± 1.7e-05 | – | –
C58A A64G C71A | 2.69e-05 ± 7.4e-06 | – | – | – | – | – | –
A14C G32U | 0.0014 ± 6.9e-05 | 3.61 ± 0.3 | 0.000206 ± 3e-05 | 0.000576 ± 7.9e-05 | 0.00103 ± 0.00012 | 6.08e-05 ± 2.1e-05 | –
C10A U55G | < 1e-05 | – | – | – | – | < 1e-05 | –
G44A U56G | 0.000224 ± 3.2e-05 | – | 5.52e-05 ± 2.2e-05 | 0.000188 ± 3.9e-05 | 0.00019 ± 2.1e-05 | – | –
G40U U46C U47G | 2.86e-05 ± 4.9e-06 | – | – | – | – | – | –
A36U A64C | < 1e-05 | – | – | < 1e-05 | < 1e-05 | < 1e-05 | < 1e-05
G13U C68A C70G | 2.66e-05 ± 2.1e-06 | 0.139 ± 0.065 | – | – | < 1e-05 | – | < 1e-05
A39G A48U | 0.00118 ± 0.00016 | 5 ± 1.2 | 0.000139 ± 3.1e-05 | 0.000436 ± 8.7e-05 | 0.000774 ± 0.00011 | – | –
A14U G40A | 0.0018 ± 0.0003 | 1.5 ± 0.45 | 0.000643 ± 0.00013 | – | 0.00161 ± 0.00021 | – | 4.43e-05 ± 1e-05
A39C U55C | 0.00774 ± 0.0022 | 3.01 ± 1.1 | 0.00144 ± 0.00027 | 0.00268 ± 0.00051 | 0.0067 ± 0.00081 | 0.000325 ± 5e-05 | 0.000127 ± 1.4e-05
G38A A52C C70A | 1.15e-05 ± 3.5e-06 | – | – | – | – | – | –
A12U A48U | 0.0014 ± 0.00052 | – | 0.00024 ± 3.3e-05 | 0.000479 ± 6.9e-05 | 0.00139 ± 0.00023 | 7.62e-05 ± 1.5e-05 | –
